Reference: IntAct's records for PubMed 28497574

B1: Methylmalonic aciduria type A protein, mitochondrial (Homo sapiens), Q8IVH4 (parent)
chain: MPMLLPHPHQHFLKGLLRAPFRCYHFIFHSSTHLGSGIPCAQPFNSLGLHCTKWMLLSDGLKRKLCVQTTLKDHTEGLSDKEQRFVDKLYTGLIQGQRACLAEAITLVESTHSRKKELAQVLLQKVLLYHREQEQSNKGKPLAFRVGLSGPPGAGKSTFIEYFGKMLTERGHKLSVLAVDPSSCTSGGSLLGDKTRMTELSRDMNAYIRPSPTRGTLGGVTRTTNEAILLCEGAGYDIILIETVGVGQSEFAVADMVDMFVLLLPPAGGDELQGIKRGIIEMADLVAVTKSDGDLIVPARRIQAEYVSALKLLRKRSQVWKPKVIRISARSGEGISEMWDKMKDFQDLMLASGELTAKRRKQQKVWMWNLIQESVLEHFRTHPTVREQIPLLEQKVLIGALSPGLAADFLLKAFKSRD
partner: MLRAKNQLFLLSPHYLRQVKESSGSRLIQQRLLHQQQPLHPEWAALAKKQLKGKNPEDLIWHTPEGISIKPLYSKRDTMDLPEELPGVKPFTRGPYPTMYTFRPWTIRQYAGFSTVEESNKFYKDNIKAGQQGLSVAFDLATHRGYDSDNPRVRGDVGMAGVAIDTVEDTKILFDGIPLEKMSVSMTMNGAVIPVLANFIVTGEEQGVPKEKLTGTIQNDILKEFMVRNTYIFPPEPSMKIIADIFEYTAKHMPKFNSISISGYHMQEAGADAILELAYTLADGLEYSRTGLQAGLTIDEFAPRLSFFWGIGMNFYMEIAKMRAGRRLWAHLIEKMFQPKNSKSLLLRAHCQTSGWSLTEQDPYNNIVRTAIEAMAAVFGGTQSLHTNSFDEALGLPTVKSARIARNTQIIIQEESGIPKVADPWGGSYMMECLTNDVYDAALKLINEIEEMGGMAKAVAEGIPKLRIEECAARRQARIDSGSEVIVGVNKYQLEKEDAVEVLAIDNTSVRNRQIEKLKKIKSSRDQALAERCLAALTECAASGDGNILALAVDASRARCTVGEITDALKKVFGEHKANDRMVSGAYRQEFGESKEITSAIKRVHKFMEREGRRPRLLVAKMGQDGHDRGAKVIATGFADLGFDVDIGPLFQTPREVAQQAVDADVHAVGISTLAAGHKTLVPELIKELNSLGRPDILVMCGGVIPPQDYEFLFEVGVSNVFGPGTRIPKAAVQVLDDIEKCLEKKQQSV

Variants of: B1
Conditions: with muta_human MMUT

effect of a mutation on the interaction | Variant
disrupting interaction strength | MPMLLPHPHQHFLKGLLRAPFRCYHFIFHSSTHLGSGIPCAQPFNSLGLHCTKWMLLSDGLKRKLCVQTTLKDHTEGLSDKEQRFVDKLYTGLIQGQRACLAEAITLVESTHSRKKELAQVLLQKVLLYHREQEQSNKGKPLAFRVGLSGPPGAGKSTFIEYFGKMLTERGHKLSVLAVDPSSCTSGGSLLGDKTRMTELSRDMNAYIRPSPTRGTLGGMTRTTNEAILLCEGAGYDIILIETVGVGQSEFAVADMVDMFVLLLPPAGGDELQGIKRGIIEMADLVAVTKSDGDLIVPARRIQAEYVSALKLLRKRSQVWKPKVIRISARSGEGISEMWDKMKDFQDLMLASGELTAKRRKQQKVWMWNLIQESVLEHFRTHPTVREQIPLLEQKVLIGALSPGLAADFLLKAFKSRD [V220M]
disrupting interaction strength | MPMLLPHPHQHFLKGLLRAPFRCYHFIFHSSTHLGSGIPCAQPFNSLGLHCTKWMLLSDGLKRKLCVQTTLKDHTEGLSDKEQRFVDKLYTGLIQGQRACLAEAITLVESTHSRKKELAQVLLQKVLLYHREQEQSNKGKPLAFRVELSGPPGAGKSTFIEYFGKMLTERGHKLSVLAVDPSSCTSGGSLLGDKTRMTELSRDMNAYIRPSPTRGTLGGVTRTTNEAILLCEGAGYDIILIETVGVGQSEFAVADMVDMFVLLLPPAGGDELQGIKRGIIEMADLVAVTKSDGDLIVPARRIQAEYVSALKLLRKRSQVWKPKVIRISARSGEGISEMWDKMKDFQDLMLASGELTAKRRKQQKVWMWNLIQESVLEHFRTHPTVREQIPLLEQKVLIGALSPGLAADFLLKAFKSRD [G147E]
decreasing interaction strength | MPMLLPHPHQHFLKGLLRAPFRCYHFIFHSSTHLGSGIPCAQPFNSLGLHCTKWMLLSDGLKRKLCVQTTLKDHTEGLSDKEQRFVDKLYTGLIQGQRACLAEAITLVESTHSRKKELAQVLLQKVLLYHREQEQSNKGKPLAFRVGLSGPPGAGKSTFIEYFGKMLTERGHKLSVLAVDPSSCTSGGSLLGDKTRMTELSRDMNAYIRPSPTRGTLGGVTRTTNEAILLCEGAGYDIILIETVGVGQSEFAVADMVDMFVLLLPPAGGDELQGIKRGIIEMADLVAVTKSDGDLIVPARRIQAEYVSALKLLRKRSQVWKPKVIRISARSGEGISEMWDKMKDFQDLMLASGELTAKGRKQQKVWMWNLIQESVLEHFRTHPTVREQIPLLEQKVLIGALSPGLAADFLLKAFKSRD [R359G]
with no effect | MPMLLPHPHQHFLKGLLRAPFRCYHFIFHSSTHLGSGIPCAQPFNSLGLHCTKWMLLSDGLKRKLCVQTTLKDHTEGLSDKEQRFVDKLYTGLIQGQRACLAEAITLVESTHSRKKELAQVLLQKVLLYHREQEQSNKGKPLAFRVGLSGPPGAGKSTFIEYFGKMLTERGHKLSVLAVDPSSCTSGGSLLGDKTQMTELSRDMNAYIRPSPTRGTLGGVTRTTNEAILLCEGAGYDIILIETVGVGQSEFAVADMVDMFVLLLPPAGGDELQGIKRGIIEMADLVAVTKSDGDLIVPARRIQAEYVSALKLLRKRSQVWKPKVIRISARSGEGISEMWDKMKDFQDLMLASGELTAKRRKQQKVWMWNLIQESVLEHFRTHPTVREQIPLLEQKVLIGALSPGLAADFLLKAFKSRD [R196Q]

The remaining lines, values behind:

Variant | effect of a mutation on the interaction
MPMLLPHPHQHFLKGLLRAPFRCYHFIFHSSTHLGSGIPCAQPFNSLGLHCTKWMLLSDGLKRKLCVQTTLKDHTEGLSDKEQRFVDKLYTGLIQGQRACLAEAITLVESTHSRKKELAQVLLQKVLLYHREQEQSNKGKPLAFRVGLSGPPGAGKSTFIEYFGKMLTERGHKLSVLAVDPSSCTSGGSLLGDKTRMTELSRDMNAYIRPSPTRGTLGGVTRTTNEAILLCEGAGYDIILIETVGVGQSEFAVADMVDMFVLLLPPAGGDELQGIERGIIEMADLVAVTKSDGDLIVPARRIQAEYVSALKLLRKRSQVWKPKVIRISARSGEGISEMWDKMKDFQDLMLASGELTAKRRKQQKVWMWNLIQESVLEHFRTHPTVREQIPLLEQKVLIGALSPGLAADFLLKAFKSRD [K276E] | decreasing interaction strength
MPMLLPHPHQHFLKGLLRAPFRCYHFIFHSSTHLGSGIPCAQPFNSLGLHCTKWMLLSDGLKRKLCVQTTLKDHTEGLSDKEQRFVDKLYTGLIQGQRACLAEAITLVESTHSRKKELAQVLLQKVLLYHREQEQSNKGKPLAFRVGLSGPPGAGKSTFIEYFGKMLTERGHKLSVLAVDPSSCTSGGSLLGDKTRMTELSRDMNAYIRPSPTRGTLGGVTRTTNEAILLCEGAGYDIILIETVGVGQSEFAVADMVDMFVLLLPPAGGDELQGIKRGIIEMADLVAVTKSVGDLIVPARRIQAEYVSALKLLRKRSQVWKPKVIRISARSGEGISEMWDKMKDFQDLMLASGELTAKRRKQQKVWMWNLIQESVLEHFRTHPTVREQIPLLEQKVLIGALSPGLAADFLLKAFKSRD [D292V] | disrupting interaction strength
MPMLLPHPHQHFLKGLLRAPFRCYHFIFHSSTHLGSGIPCAQPFNSLGLHCTKWMLLSDGLKRKLCVQTTLKDHTEGLSDKEQRFVDKLYTGLIQGQRACLAEAITLVESTHSRKKELAQVLLQKVLLYHREQEQSNKGKPLAFRVGLSGPPGAGKSTFIEYFGKMLTERGHKLSVLAVDPSSCTSGRSLLGDKTRMTELSRDMNAYIRPSPTRGTLGGVTRTTNEAILLCEGAGYDIILIETVGVGQSEFAVADMVDMFVLLLPPAGGDELQGIKRGIIEMADLVAVTKSDGDLIVPARRIQAEYVSALKLLRKRSQVWKPKVIRISARSGEGISEMWDKMKDFQDLMLASGELTAKRRKQQKVWMWNLIQESVLEHFRTHPTVREQIPLLEQKVLIGALSPGLAADFLLKAFKSRD [G188R] | disrupting interaction strength
